Assay results from US20210283221A1.

Molecular target: human complement C5 with an unidentified amino acid substitution at Arg885 (in serum of the Example 4 patient) (human), P01031
Assay: cell-based or functional assay

B1: Coversin protein, Q5YD59 19-168 (protein)
chain: DSESDCTGSEPVDAFQAFSEGKEAYVLVRSTDPKARDCLKGEPAGEKQDNTLPVMMTFKNGTDWASTDWTFTLDGAKVTATLGNLTQNREVVYDSQSHHCHVDKVEKEVPDYEMWMLDAGGLEVEVECCRQKLEELASGRNQMYPHLKDC
Q: With B1 as the binder, how does the residual CH50 (U Eq/ml) as % of baseline in serum of the Example 4 patient at Coversin approximately 15 ug/ml (% of baseline CH50) read?
A: < 5
